Test results published in the Immune Epitope Database (IEDB).

Key:
HLA-A*24:03 = test: IEDB peptide-MHC binding, purified MHC/direct/fluorescence; filed as Kd, often an IC50 or EC50 that approximates it; ≥ and ≤ were set here for values at or beyond the usual limits of such assays; settings: source organism: Zaire ebolavirus
HLA-A*02:01 = test: as above; settings: source organism: Sudan ebolavirus - Maleo (1979)
HLA-B*27:03 = test: IEDB peptide-MHC binding, purified MHC/competitive/fluorescence; filed as Kd, often an IC50 or EC50 that approximates it; ≥ and ≤ were set here for values at or beyond the usual limits of such assays; settings: source organism: Zaire ebolavirus
HLA-C*06:02 = test: as above; settings: source organism: Zaire ebolavirus
HLA-B*15:01 = test: as above; settings: source organism: Zaire ebolavirus
HLA-B*18:01 = test: as above; settings: source organism: Zaire ebolavirus
HLA-A*03:19 = test: as above; settings: source organism: Zaire ebolavirus
HLA-B*45:06 = test: as above; settings: source organism: Zaire ebolavirus
HLA-A*26:01 = test: as above; settings: source organism: Zaire ebolavirus
HLA-B*15:42 = test: as above; settings: source organism: Zaire ebolavirus
HLA-B*15:17 = test: as above; settings: source organism: Zaire ebolavirus
HLA-B*83:01 = test: as above; settings: source organism: Zaire ebolavirus
HLA-B*57:01 = test: as above; settings: source organism: Zaire ebolavirus
HLA-B*46:01 = test: as above; settings: source organism: Zaire ebolavirus
HLA-B*39:01 = test: as above; settings: source organism: Zaire ebolavirus

What does the source list for VLYHRYNLV?
Kd (HLA-A*24:03): ≥ 20 µM; Kd (HLA-A*02:01): 18.1 nM; Kd (HLA-B*27:03): ≥ 20 µM; Kd (HLA-C*06:02): 804 nM; Kd (HLA-B*15:01): ≥ 20 µM; Kd (HLA-B*18:01): ≥ 20 µM; Kd (HLA-A*03:19): 4.4 nM; Kd (HLA-B*45:06): ≥ 5 µM; Kd (HLA-A*26:01): ≥ 20 µM; Kd (HLA-B*15:42): ≥ 5 µM; Kd (HLA-B*15:17): ≥ 20 µM; Kd (HLA-B*83:01): ≥ 5 µM; Kd (HLA-B*57:01): ≥ 20 µM; Kd (HLA-B*46:01): ≥ 20 µM; Kd (HLA-B*39:01): ≥ 20 µM
